The DeepSol protein solubility set

test: soluble on expression in E. coli; label from the status in PepcDB or PDB records

Row | Sequence | soluble on expression in E. coli
1 | MGSDKIHHHHHHMEEVINGILIREVETKNIMTKSSLPVGGYSVNPYVGCTHACKYCYASFMKRFTGHKEEWGTFLDVKHWPEIKNPKKYAGQRVVIGSVTDGYNPQEEQFGNTRKLLEQLIGSDADILICTKSDLVVRDIDLLKKLGRVTVSWSINTLDENFKNDMDSASSIERRISAMKQVYESGIRTVCFVSPVFPGITDFEAIFERVKDQCDLFWLENLNLRGGFKKTIMDYITGQYPDLVPLYDEIYNKHNRSYFEALEVKAEKMAKKYDCAFVDNEMPYGRVPQGHPVIVDYFYHEEIRGTENTGKRNR | not soluble
2 | KAHGNFPVYRNTDVTFLPTGEAFFEKMKEELLKAKKYIFLEFFIIDEGIMWGEILSILEQKVEEGVEVRILYDGMIEITKLSFDYTKRLEKIGIKAKAFSPISPFISTYYNYRDHRKIVVIDGVVGMTGGVNLADEYINHIELFGHWKDSGIMLKGKAVDSFLLLFLQMWSITEEKMLVAPYLGVHDDLVENEGYVIPYGDSPLDTDKVGENV | not soluble
3 | MKLALFDLDNTLLAGDSDFQWAQFLIEQQVLDREVYEARNIEFYEQYKAGTLDIHEFLDFQLKPLSRHPREQLNTWRSDFIERKIAPLIAPGARELIARHQAEKDLCIIITATNSFVTAPIARMLGIDHLIATEPEQKNGEFTGRVTGIPSFQAGKITRLEQWLDAHNLTWLSFLQSWFYSDSLNDLPLLKRVTHPVAVDPDATLHEHAKKSGWPIISLRQ | not soluble
4 | MGSDKIHHHHHHMYQPISIVNIYYQGFGDKRLIGKLTMDGRRPTFGYDAAWLADGLELSPIEMPLRSAPYYGSHASSHYLCGLLSDSLPDGWGMLLMDRFFRRTISNTAPVNILDRLAYIGDSAMGALSFEPQHDLSANVIDMSELTLAKLAAANQTILSGQDSDILAELIVIGGSPQGARPKALVLYDESSDFITTDTASKNPSATSWLIKFPAQSEHKSVCLLEALYADMAKKAGLNMPMHHYFDIDSEYAAFGVERFDRMGNQRVHIHTLAGLLDIDFRIPSLDYLQYLRCVRMLTQSQLAVESAFKHAVFNVIFNNKDDHSKNFSFMMNEAGSWSLSPVYDLAYNSGMNGYHQMDVAGEARYPTLSHLLKLAKLADIKQNKAQAIIDQVASVAEDFLTVINDHDIEKELSNRVIQDIKANINRMVS | not soluble
5 | MGSDKIHHHHHHMKDLVYLNYAATSYKKFPATIEALTAYLAENQFMNYGRNAPLLREGLPLLETRQLLADFFQAPSAAQITFTNNATTSLNLALAGILQPGDHVITTMLEHHAVARPLHLLEKERGISVTYVACQKTGLLEVEDIQRAWRTNTKALVMTHASNVLGTILPIEECFQWAQQKGLLTILDAAQTAGFLPIKMTQMAIDVLAFTGHKSLYGLAGIGGLAFSERGAEAVKPLMAGGTGSHSNSFDQPSFLPDKFEAGTLNSLGILSLNSSIKELNKIGLAAIQKHERTLMQNFLNGLSGLPVTILGTKDVAQTVPVVSITLWNQEETIVAQQLAEQYGIMTRAGLHCAPLAHQTAGTLATGTLRFSFGWQTTPEEITWTIHALQELLI | not soluble
6 | MAHHHHHHMCYDCATSSSLVTTILNGMHVFNLDERFYGANLAAGLSASNVESYPYHTIGEEPLMSSCFFNAGQLFAVGSSCGSVTVVSRRSRALTSCYATPDSFPIRSLSEIPAQPNCLLTCTEQGAAIVDVERSQLRMSLANPAAGRAVAAVPLQLHTFVVANYDGKVLLYDTRYRSSPSSVLSLPDQITCLAVSRDTPEVCVGTVGGRVFTLRCAEGPQREQAFGMSNRRSPVRCVAMDNGRIAAGDLAGRLALIDTADVPDPTVYWSAETLLRLPRPSGRARHA | not soluble
7 | REINGATRWIPLGPLNFQPTELFKLAVILYLASLFTRREEVLRSMESLGWQSIWRGTANLIMSATNPQARRETLEMYGRFR | not soluble
8 | MGGKSNGEKKYIVGFKQGFKSCAKKEDVISEKGGKLQKCFKYVDAASATLNEKAVEELKKDPSVAYVEEDKLYRALSATS | soluble
9 | QMAGIYQALANDGQRIEPRIIEKVVDSSGNEVEQQPPAETRVVSAQTARTVVDMFRGVVQKDPTGINSGTGAGAAVDGYQVSGKTGTAQQVDPNTGAYSNSNYWITFAGIAPADNPRFVVALMLDKPHRGVHGEGGQSAAPLFHDIASWILDRDNVPLSPPMEGQLVLQAQ | not soluble
10 | RRHKNKNPFHFNSKRFQTLFKNQYGHVRVLQRFNKRSQQLQNLRDYRILEFNSKPNTLLLPHHADADYLIVILNGTAILTLVNNDDRDSYNLQSGDALRVPAGTTYYVVNPDNDENLRMITLAIPVNKPGRFESFFLSSTQAQQSYLQGFSKNILEASYDTKFEEINKVLFGREEGQQQGEERLQESVIVEISKKQIRELSKHAKSSSRKTISSEDKPFNLRSRDPIYSNKLGKLFEITPEKNPQLRDLDVFLSVVDMNEGALFLPHFNSKAIVVLVINEGEANIELVGIKEQQQRQQQEEQPLEVRKYRAELSEQDIFVIPAGYPVVVNATSDLNFFAFGINAENNQRNFLAGSKDNVISQIPSQVQELAFPGSAKDIENLIKSQSESYFVDAQPQQKEEGNKGRKGPLSSILRAFY | soluble
11 | MAHHHHHHMSNDPKPTKPDPRVANNDVASDDGSDGKGDVAAPPAFLPTAGRVEVHPLVLLSLVDHYARMNTSAVQKKRVAGLLLGRYVRDSTGMQTLDINNSFAVPFDEDPQDAGVWFFDTNYAQEMFAMHKRVLPKVKVVGWYSSGPTIQPNDMLLHLLVADRFCLNPVYCVVNTDPNNKGVPVRAYTTVQGREGTRSLEFRNIPTHLGAEEAEEIGIEHLLRDLTDSTITTLSTQVQERELSLVHLCKVLQQIEEYLKDVGNAVMPISEDVLEVLQELISLQPEIYARRSSTEMIRHTNDEAIATFLAAIARCIGALHGVIMNRRKLARELQEIKDRRARAAETRLENEKMKIEEAAKEKDTNQA | not soluble
12 | MGSDKIHHHHHHMTVLIIGMGNIGKKLVELGNFEKIYAYDRISKDIPGVVRLDEFQVPSDVSTVVECASPEAVKEYSLQILKNPVNYIIISTSAFADEVFRERFFSELKNSPARVFFPSGAIGGLDVLSSIKDFVKNVRIETIKPPKSLGLDLKGKTVVFEGSVEEASKLFPRNINVASTIGLIVGFEKVKVTIVADPAMDHNIHIVRISSAIGNYEFKIENIPSPENPKTSMLTVYSILRTLRNLESKIIFG | soluble
13 | MKVLILTVGTTREPLEVALAEHAPQGVVFLASQASHPVAAELVRDYGGSFRHHTLLLEDAESLMEAYQKALLALRKALEWEATAIVADLTGGTKPMAAGLVLALTGRGVVFSYVGGEARDPGTGRVLAGKERLRLLEDPTARLGLKEWAGFTRAWNALNLGMALAELESLLRRDLSPSEARFYGAMKGVVEGLMEWDRFRHREAWERLSVHLPLALAVAEAWGHGAKVRVLKGLEALLPHLKGIVEAGPKPTFLLLQDLLANAERRAALGRFDDALARLYRALELAVEADVHERLGFSLKDPRTWPEGFPEGLRERILKPRGLMDLLDAAFDLDLAFGEQGTLAQRLYGEKNRLQALLQRRHESILAHGTRPVGEEDYTALRDFLMRLDERLRPLPPWPRF | soluble
14 | EDAWEANDPLGSLSIRYLEAAQDSQWHRELLLAGTDINHHVFRDLVTPRNPRSRFSFAMYLKEQGRMFDFGLLGRPASRHEWSDYLAWVSRQVDSQTCFNTPVTGIDPVLRNGRLHEVRVCTPQTCFTTRNVVLSSGSAPRIPHAFEALLGPTLFHTSQFLTRLQAFGEYLPKRWLVLGSGQSASESVLELVSRDHAIEV | not soluble
15 | TTTLAFRFQGGIIVAVDSRATAGNWVASQTVKRVIEINPFLLGTMAGGAADCQFWETWLGSQCRLHELREKERISVAAASKILSNLVYQYKGAGLSMGTMICGYTRKEGPTIYYVDSDGTRLKGDIFCVGSGQTFAYGVLDSNYKWDLSVEDALYLGKRSILAAAHRDAYSGGSVNLYHVTEDGWIYHGNHDVGELFWKVKEEEGSFNNVIG | soluble
16 | MGSDKIHHHHHHMSDARGAFHSKGRWSRMALPAILCAGLLVGCGAEPPAEEHVRVLAQTVKMAEFASATSITGDIQARVQADQSFRVGGKIVERLVDVGDHVAAGQVLARLDPQDQRSNVENAQAAVAAQQAQSKLADLNYQRQKALLPKGYTSQSEYDQALASVRSAQSSLKAAQAQLANARDLLSYTELRASDAGVITARQAEVGQVVQATVPIFTLARDGERDAVFNVYESLFSHDVDGQRITVSLLGKPEVTASGKVREITPTVDERSGTLKVKVGLDSVPAEMSLGSVVNASVAAPAEHSVVLPWSALSKVGEQPAVWLLDQQGKARLQPVRVARYASEKVVIDGGLEAGQTVVTVGGQLLHPGQVVEVAQPPQPTQSTASRDAVGGGQP | not soluble
17 | MSKLGKQDVYYFEGLDDILIAMMTTKDAVGTEPAFGEVVRLPIATKLGIKGNGTALEKWASSKMFRRVSRETKHEIALDHVGIPIAVMDEIKGLIAQSGVTFGKNTAREFPYFAFGFIGNIENGGKKAVWYPKTQLSNVIDEEYTTAEDETKIDDVTANFVSTGLTYNNVMYSSFDSNRDSASIELFEKFIAQPVYDEEQWKKLAGPSRGGGSELEHHHHHH | soluble
18 | MSTNKRRTIQIEITEEHFKDLEKALEALKGTQLPFSTTVEQFVELILSNYVATSNKISNLAESGFDVASIQQELEKIGSAAGADDALKSFLDELLKTSQKSFSNTKDGKKNDDDNNSSSKS | soluble
19 | RHAGVVTAVERHGESLLEVTCRLQGDWSHRAGQFAFLTCDRLEGAHPFTIASADRGCGEVRFSIKALGDYTRRLQDNLEVGARVEVEGPYGCFDFRRGLAGRQVWVAAGIGVTPFIAWLESLQAAPESAPSVELHYCVRNSQEALFAGRLRELCEH | not soluble
20 | MCKDVSGQNLLVAPDAINHHVKTCRENMRYMHYIAPEYENNTELTSAADIYSFGICSLEIAVIGGLSGCQNGSSEGPVTEDVIEKAIRSLEDPMQQDFIRQCLRKDPAERPSARELLFHQILFEVHSLKLLSAHAIVDSKKYEDVSESAFRIKDNETIAATSKLREMAYCQVAAFQVDLEKFLDDVRNGIYPLTAFAPLAHQPSTTLRAYSNTNPSTLITTDISAPSSTHPSANSTITAETSVNTSLPGQSSQPSGTTTNTNGPSSIGKSASPEAVDKKIGEVTSTESTSKVEVEVNGANVTIGSSNGRDAGSPTPEEEGEPNGERDMRLENRHILEINVHIENEEMSIVLLLEDQMHRQLTTSINKGDNPETLTENLITHGFMCQLDSEGVEKAIAVAFDIRAARIAEGVQEEENETSTRESNSEAPIEHGTSSSITNSVKPIVDSVAPSSQTPTTTTSS | not soluble
21 | MEWGVRFYVLSKQEWKQQTIDRCGQFYCLVPSNAGFHVYLFVTMDTGENAVFVFPPHFFIRYRERYWGKHSTLSGKILRKTYLKDNLVMRYGLQPGSEERVTGARIYSASSHGVALGIVLNDEAYLFKTFITYAMTKGEQIPLYMQEKLSMERAQVEYYNTGRLADLVELEERDRKRREMLMAEERRREEKEKRRAAEPGEAYFYVEGPLTLIMPDEEIQEENTGFWQRGTTMFCDSKLIEESQREMRELASVEARIQELKNIPQKAEEKKGVFKRLFGRYF | not soluble
22 | SGKCYLSLHEHNSSANRGACAQICRRGYTVKDKDSGLELDIENQYIMSPKDLKTIHFINKMMDAGVRVFKIEGRARGPEYVYTVCRCYKEAIEAYCNGTYDEESIGRWDEQLATVFNRGFWDGYYLGQRLGEWTHRYGSGATRQKIYVGKGIKYFSRLGVAEFEIESGELHIGDEIVITGPTTGVIIQKVEEIRYELQTVEKATKGQRISIPVKEKVRPSDKLYRFDKRE | not soluble
